Measured values reported in publication PMC7288244.

Tests used:
[1] = target: Human Recombinant FcγR receptor IIA/CD32a (human) (UniProt P12318); assay: ELISA
the FcγR = assay: fluorescence correlation spectroscopy

Chain of UniProt P12318 (P12318 34-217): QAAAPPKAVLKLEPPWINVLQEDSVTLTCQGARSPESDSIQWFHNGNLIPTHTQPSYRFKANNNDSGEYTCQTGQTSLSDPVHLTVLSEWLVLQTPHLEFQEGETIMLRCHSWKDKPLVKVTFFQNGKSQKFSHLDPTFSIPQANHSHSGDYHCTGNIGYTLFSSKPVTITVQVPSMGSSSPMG

Substance | EC50 [1] [nM] | stoichiometry N (the FcγR)
immune complex of N5-i5-LALA with FLSC | 6 | 
immune complex of C11-LALA with FLSC | 0.6 | 
human IgG1 mAb C11-LALA (antibody) |  | 1
human IgG1 mAb N5-i5-LALA (antibody) |  | 1
